From US11702469B2, “Recombinant EGFL7, EGFL7 antibodies, and uses thereof” (Ohio State Innovation Foundation, priority 2017, dated 2023)

Experiments:
[1] = test system: EOL-1 cells; test: EOL-1 AML xenograft in NSG mice; details: for overall survival: 50 mg/kg intraperitoneal, three times per week, 4 mice per group, vs IgG1 control
Experimental: (FIG. 25A) Overall survival of transplanted NSG mice which were treated with Parsatuzumab or IgG1 control (4 mice per group; dosage 50 mg/kg intraperitoneal injected). […] (FIG. 25B) HES-1 levels were measured after in vivo treatment with Parsatuzumab and IgG1 control, GAPDH was used as loading control.
All studies using animals were carried out in accordance with the OSU institutional guidelines for animal care and under protocols approved by the OSU Institutional Animal Care and Use Committee. All mice used in the experiments were between 8 and 10 weeks of age. Female NOD-scid IL2Rg^null (NSG) mice were transplanted with 10×10^6 EOL-1 cells. Two weeks post-transplant mice were treated with Parsatuzumab or IgG1 control (4 mice per group; dosage 50 mg/kg intraperitoneal), three times per week. Mice were monitored closely for clinical signs of leukemia such as weight loss and hind limb paralysis.
Two-tailed student's t tests were performed using GraphPad Prism version 7 (Graphpad Software, San Diego, Calif.) to analyze in vitro and in vivo experiments unless otherwise noted. P values <0.05 were considered significant. Overall survival for the mouse AML xeonograft model was calculated using the Kaplan-Meier method, and survival curves were compared by the log-rank test.
Briefly, 10×10^6 EOL-1 cells were transplanted into non-conditioned NSG recipient mice. Two weeks post-transplantation, mice were treated with 50 mpk of anti-EGFL7 or IgG1 control antibody three times per week (FIG. 25A).

[2] = test system: human AML blasts; test: CFU assay, blasts of AML patients; type: cell-based
Experimental: FIG. 4A-4E. EGFL7 stimulates the proliferation of human and mouse acute myeloid leukemia (AML cells). Bone marrow cells from wild-type (WT) mice (FIG. 4A), and Mll^PTD/WTFlt3^ITD/WT mice (FIG. 4B), were treated without (Unstim) or with 0.1, 0.25, or 0.5 μM recombinant mouse Egfl7 (rEgfl7) in IMDM medium+2% bovine serum albumin (BSA) for 24, 48, 72 and 96 hours. At the indicated time points, the number of viable cells was determined by trypan blue dye exclusion assay. Each condition was repeated in triplicate. NS indicates not significant, * indicates P<0.05, ** indicates P<0.01. (FIG. 4C). […] The colonies with more than 50 cells were enumerated using a light microscope. Each condition for each patient (n=4) was plated in triplicate, ** indicates P<0.01, *** indicates P<0.001. (FIG. 4D) Blasts from AML patients (n=4) were cultured in SFEM+2% BSA in the absence or presence of 0.25 μM rEGFL7 for 20 min. Total proteins were extracted for immunoblotting of phosphorylated AKT-S473 (pAKT-S473), total AKT and GAPDH. (FIG. 4E) AML blasts from Mll^PTD/WTFlt3^ITD/WT mice (n=3) were cultured in IMDM medium+2% BSA in the absence or presence of […] recombinant rEgfl7 for 20 min. […]
FIG. 5. […] The number of colonies with more than 50 cells was counted under a light microscope. […]
Colonies with more than 50 cells were counted using a light microscope. […]

B1: Parsatuzumab: Anti-human EGFL7 therapeutic antibody (Parsatuzumab) obtained from Creative Biolabs; blocking monoclonal antibody (antibody, chains of the INN, looked up, V domains shown)
VH: EVQLVESGGGLVQPGGSLRLSCAASGYTFIDYYMNWVRQAPGKGLEWVGDINLDNSGTHYNQKFKGRFTISRDKSKNTAYLQMNSLRAEDTAVYYCAREGVYHDYDDYAMDYWGQGTLVTVSS
VL: DIQMTQSPSSLSASVGDRVTITCRTSQSLVHINAITYLHWYQQKPGKAPKLLIYRVSNRFSGVPSRFSGSGSGTDFTLTISSLQPEDFATYYCGQSTHVPLTFGQGTKVEIK
[1]
  overall survival: significant longer overall survival
[1]; listed as anti-EGFL7
  overall survival: prolonged survival
[1]; 50 mpk three times per week, vs IgG1 controls
  HES1 protein (western blots) after in vivo treatment: increased levels of HES1 protein
[2]; 2, 10, 50, or 250 μg/ml for 2 h, then 10 days, vs normal IgG
  cell growth (numbers of formed colonies in CFU assays): significant decreases in cell growth
[2]; increasing concentrations for 4 hours, then 10 days in methylcellulose, n=4, vs IGg1 control
  blast growth (number of CFUs): dose dependent decrease in blast growth
